Substitutions are numbered along the chain they refer to.
T1: human CXCR5 (human, UniProt P32302 1-372)
T1 sequence: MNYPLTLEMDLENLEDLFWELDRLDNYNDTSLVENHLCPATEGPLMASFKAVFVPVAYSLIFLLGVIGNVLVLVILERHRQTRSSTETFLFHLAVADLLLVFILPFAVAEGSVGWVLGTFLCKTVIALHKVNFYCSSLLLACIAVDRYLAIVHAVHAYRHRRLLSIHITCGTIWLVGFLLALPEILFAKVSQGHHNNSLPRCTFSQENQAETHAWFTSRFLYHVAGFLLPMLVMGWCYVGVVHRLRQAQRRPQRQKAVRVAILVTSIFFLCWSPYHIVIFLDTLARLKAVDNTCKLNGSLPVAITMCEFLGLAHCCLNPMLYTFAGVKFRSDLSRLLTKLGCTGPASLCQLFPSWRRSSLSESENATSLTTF

T2: cynomolgus monkey (Macaca fascicularis) CXCR5 (cynomolgus monkey (Macaca fascicularis), UniProt P32302 1-372 (human entry))
T2 construct: Full length, on stably transfected cells (CHO, L1.2) or native on cynomolgus B cells in whole blood; also called cCXCR5
T2 chain: T1 sequence with W19L, L21F, R23K, L24F, L180F, G193A, H195P, A285V, K295E, R357K

T3: rat CXCR5 (rat, UniProt P34997 1-374)
T3 construct: whole, on cells
T3 sequence (looked up): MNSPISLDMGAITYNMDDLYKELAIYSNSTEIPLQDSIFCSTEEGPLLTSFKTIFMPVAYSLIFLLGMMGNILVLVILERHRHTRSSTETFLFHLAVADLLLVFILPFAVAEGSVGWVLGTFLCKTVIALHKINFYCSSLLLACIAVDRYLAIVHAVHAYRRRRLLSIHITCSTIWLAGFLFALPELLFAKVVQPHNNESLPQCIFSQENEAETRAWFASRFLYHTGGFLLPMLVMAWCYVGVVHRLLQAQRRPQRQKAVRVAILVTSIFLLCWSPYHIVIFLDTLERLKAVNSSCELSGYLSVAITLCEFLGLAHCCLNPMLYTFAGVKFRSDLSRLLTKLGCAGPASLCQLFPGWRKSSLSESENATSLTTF

T4: mouse CXCR5 (mouse, UniProt Q04683 1-374)
T4 construct: whole, on cells
T4 sequence (looked up): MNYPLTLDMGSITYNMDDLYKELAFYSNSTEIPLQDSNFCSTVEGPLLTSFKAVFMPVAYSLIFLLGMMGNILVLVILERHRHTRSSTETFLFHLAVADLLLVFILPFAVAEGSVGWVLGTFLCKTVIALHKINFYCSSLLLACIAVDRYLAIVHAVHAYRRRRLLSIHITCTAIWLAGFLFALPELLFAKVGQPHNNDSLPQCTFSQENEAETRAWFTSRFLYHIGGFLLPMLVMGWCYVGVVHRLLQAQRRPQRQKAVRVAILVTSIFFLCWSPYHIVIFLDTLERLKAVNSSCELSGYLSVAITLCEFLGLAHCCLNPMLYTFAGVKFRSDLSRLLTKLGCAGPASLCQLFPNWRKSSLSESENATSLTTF

B1: mAb 80D11 (antibody, V domains shown)
VH: EVQLLESGGGLVQPGGSLRLSCAASGFTFSHYWMQWVRQAPGKGLEWVSSISSSGGKTRYADSVKGRFTISRDNSKNTLYLQMNSLRAEDTAVYYCATAGYSSGWGQGTLVTVSS
VL: QSALTQPASVSGSPGQSITISCTGTSSDVGGYNYLSWYQQHPGKAPKLMIYGVSNRPSGVSTRFSGSKSGNTASLTISGLQAEDEADYYCSSYTSTGTRVFGGGTRLTVL
B2: mAb 12A01 (antibody, V domains shown)
VH: EVQLLESGGGLVQPGGSLRLSCAASGFTFSRYVMVWVRQAPGKGLDWVSGISPSGGVTRYADSVKGRFTISRDNSKNTLYLQMNSLRAEDTAMYYCARIRKEMTTISYFFDYWGQGTLVTVSS
VL: DIQMTQSPDSLSASVGDRVTITCRASQGVDIYVAWYQQKPGKVPKLLMHSASTLASGVPSRFSGRGSGTDFTLTINSLQAEDVATYYCQSHNSAVVTFGQGTRLEIK
B3: mAb 40C01 (antibody, V domains shown)
VH: B2 VH
VL: B2 VL with Q6R, S7A, V43A
notes: also called 40C01 VH-VL; 40C01 parental molecule
B4: anti-CXCR5 40C01-VH2-Vk3 as IgG1 (antibody)
VH: B2 VH with Y32S, D46E, D62A, M93V, M103K
light: DIQMTQSPSSLSASVGDRVTITCRASQGVDAYVAWYQQKPGKVPKLLIYSTSTLASGVPSRFSGSGSGTDFTLTISSLQPEDVATYYCQSHNAAVVTFGQGTRLEIKRTVAAPSVFIFPPSDEQLKSGTASVVCLLNNFYPREAKVQWKVDNALQSGNSQESVTEQDSKDSTYSLSSTLTLSKADYEKHKVYACEVTHQGLSSPVTKSFNRGEC
B5: anti-CXCR5 40C01-VH1-Vk3-IgG2_DI-NQ-HC2h (antibody)
heavy: EVQLLESGGGLVQPGGSLRLSCAASGFTFSRYVMVWVRQAPGKGLEWVSGISPSGGVTRYAASVKGRFTISRDNSKNTLYLQMNSLRAEDTAVYYCARIRKEMTTISYFFDYWGQGTLVTVSSASTKGPSVFPLAPCSRSTSESTAALGCLVKDYFPEPVTVSWNSGALTSGVHTFPAVLQSSGLYSLSSVVTVPSSNFGTQTYTCNVDHKPSNTKVDKTVEPKSSDKTHTCPPCPAPPVAGPSVFLFPPKPKDTLMISRTPEVTCVVVDVSHEDPEVQFNWYVDGVEVHNAKTKPREEQAQSTFRVVSVLTVVHQDWLNGKEYKCKVSNKGLPAPIEKTISKTKGQPREPQVYTLPPSREEMTKNQVSLTCLVKGFYPSDIAVEWESNGQPENNYKTTPPMLDSDGSFFLYSKLTVDKSRWQQGNVFSCSVMHEALHNHYTQKSLSLSPG
light: B4 light
notes: Whole antibody, modified human IgG2 (subtype HC2h, WO2009010290), kappa light chain; also called 40C01-VH1-Vk3 as IgG2; VH1-Vk3 (isotype 2)
B6: anti-CXCR5 40C01-VH1-Vk3-IgG1 (antibody)
heavy: not shown
light: B4 light
B7: anti-CXCR5 40C01-VH2-Vk3 as IgG2 (antibody)
heavy: B5 heavy with Y32S, M103K
light: B4 light
notes: also called VH2-Vk3 (isotype 2)

What was measured:
[1] = target: T1, human CXCR5; assay: cell-based or functional assay
[2] = target: T2, cynomolgus monkey (Macaca fascicularis) …; assay: FACS on CXCR5 expressing cells
Procedure: (§1) Binding of anti-CXCR5 antibodies to cell lines and primary cells expressing human CXCR5 or species orthologues was assessed by FACS. Briefly, approximately 1×10⁵ CXCR5 expressing cells were suspended in FACS buffer (PBS containing 1% FBS and 0.02% sodium azide) containing increasing concentrations of anti-CXCR5 antibodies ranging from 0-100 μg/ml, and incubated for 20 min at 4° C. Cells were washed and then resuspended in FACS buffer containing PE-labelled goat anti-human IgG (Jackson labs) for 20 min at 4° C. Cells were then washed 3 times and resuspended in 100 μl FACS buffer and analysed on a FACScalibur instrument (BD Sciences). MFI was plotted against antibody concentration and Graph pad prism software was used to calculate EC₅₀ values.

[3] = target: T3, rat CXCR5; assay: FACS on cells expressing species orthologues
Procedure: as §1

[4] = target: T4, mouse CXCR5; assay: FACS on cells expressing species orthologues
Procedure: as §1

[5] = target: T1, human CXCR5; assay: cell-based or functional assay; remark: listed apart in the source
[6] = target: T2, cynomolgus monkey (Macaca fascicularis) …; assay: cell-based or functional assay
[7] = target: T1, human CXCR5; assay: cell-based or functional assay; remark: listed apart in the source
[8] = target: T2, cynomolgus monkey (Macaca fascicularis) …; assay: cell-based or functional assay
[9] = target: T1, human CXCR5; assay: cell-based or functional assay; remark: listed apart in the source
[10] = target: T2, cynomolgus monkey (Macaca fascicularis) …; assay: cell-based or functional assay
[11] = target: T1, human CXCR5; assay: KinExA, IgG2 mAb equilibrated with HEK-293 cells expressing human CXCR5, n-curve analysis
Procedure: Kinetic Exclusion Assay (KinExA) was used to determine the concentration of the free antibody that remains in solution after equilibrium has been established between the fully human IgG2 (subtype HC2h, as described in WO2009010290) anti-CXCR5 40C01 antibody variants and human CXCR5 expressed on the cell surface of stably transfected HEK-293 cells, from which the equilibrium dissociation constant (Kd) was determined. This method provides a true measure of the affinity/avidity of the antibody to integral membrane proteins like GPCRs.
HEK-293 cells, stably expressing human CXCR5, an integral membrane protein with 7 trans membrane domains, were harvested using Accutase cell detachment solution, resuspended at 2×10⁶ cells/ml and serially diluted 1 in 2 in 15 falcon tubes using KinExA buffer (PBS containing 1 mg/ml BSA and 0.02% NaN₃). An appropriate constant concentration of purified mAb was made in KinExA buffer and an equal volume of the mAb was mixed with the serially diluted cells. […] The cells were then centrifuged and the free mAb present in the supernatant was measured by KinExA using PMMA beads (Sapidyne Instruments, cat#440198) coated with goat anti-human IgG (H+L) (Jackson ImmunoResearch, cat#109-005-003) and DyLight 649-conjugated anti-human secondary antibody (Jackson ImmunoResearch, Goat anti-human Fc, cat#109-495-098) used at 1 μg/ml in KinExA buffer. […]

Row | Binder | Mean IC50 (nM) on L1.2/human CXCR5 cells (chemotaxis) [1] | binding result [2] | binding result [3] | binding result [4] | IC50, inhibition of human CXCR5-L1.2 cell chemotaxis [5] | efficacy of inhibition of CXCL13-stimulated L1.2-CXCR5 chemotaxis [5] | mean IC50, inhibition of CXCL13-stimulated chemotaxis of primary human B cells in human serum [5] | efficacy of inhibition of CXCL13-stimulated L1.2-CXCR5 chemotaxis [6] | IC50, inhibition of CXCL13-induced L1.2-CXCR5 chemotaxis [7] | IC50, inhibition of CXCL13-induced L1.2-CXCR5 chemotaxis [8] | IC50, inhibition of ERK phosphorylation in whole blood (B cells, CXCL13-stimulated) [9] | IC50, inhibition of ERK phosphorylation in whole blood (B cells, CXCL13-stimulated) [10] | Kd [11]
1 | B1 | 37 nM | binds | no binding | no binding |  |  |  |  |  |  |  |  | 
2 | B2 | 2200 nM | binds | no binding | no binding |  |  |  |  |  |  |  |  | 
3 | B3 | 5.6 nM | binds | no binding | no binding |  |  |  |  |  |  |  |  | 
4 | B4 |  |  |  |  | 0.05 nM | 100% | 0.34 nM | 100% | 0.098 nM | 0.17 nM | 0.45 nM |  | 
5 | B5 |  |  |  |  |  | 100% |  |  | 1.15 nM |  | 0.736 nM | 0.195 nM | 0.0154 nM
6 | B6 |  |  |  |  | 0.38 nM | 100% | 1.89 nM | 100% | 1.81 nM | 0.19 nM | 0.17 nM |  | 
7 | B7 |  |  |  |  |  | 100% |  |  | 0.108 nM |  | 0.88 nM | 1.57 nM | 0.047 nM
